Assay [1] addresses T1, IL-5Rα (human, UniProt Q01344).
T1 chain: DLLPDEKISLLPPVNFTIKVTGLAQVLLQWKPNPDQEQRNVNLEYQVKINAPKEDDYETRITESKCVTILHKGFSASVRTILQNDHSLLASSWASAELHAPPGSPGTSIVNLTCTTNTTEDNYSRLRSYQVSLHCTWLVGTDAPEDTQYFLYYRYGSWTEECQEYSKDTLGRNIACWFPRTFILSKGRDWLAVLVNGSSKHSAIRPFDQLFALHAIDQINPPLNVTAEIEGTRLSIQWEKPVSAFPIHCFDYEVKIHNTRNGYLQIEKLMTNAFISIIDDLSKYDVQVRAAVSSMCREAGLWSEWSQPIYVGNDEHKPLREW
Briefly: BLI. A general note: BLI is a label-free optical method that tracks binding on a fibre tip over time.

Assay [2] concerns the target T1, IL-5Rα.
The target in the next assay is CD3ε (human, UniProt P07766). Briefly: BLI.

Like-named read-outs stand apart in the source and are kept apart here.

Sequence of CD3ε (P07766 23-207): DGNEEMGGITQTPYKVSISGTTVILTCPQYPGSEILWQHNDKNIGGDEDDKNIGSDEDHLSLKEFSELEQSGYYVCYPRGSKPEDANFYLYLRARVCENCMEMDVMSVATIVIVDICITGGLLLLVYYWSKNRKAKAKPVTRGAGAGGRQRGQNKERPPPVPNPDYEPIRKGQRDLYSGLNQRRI

B1: IL-5Rα×CD3ε BiTE(L)/scFv-Fc (IL-5Rα arm) (antibody, V domains shown)
VH: QVQLVQSGAEVKKPGSSVKVSCKASGYTFTSYWINWVRQAPGQGLEWIGHIYPNKNENYYNHKFKDKATLTVDKSTNTAYMELSSLRSEDTAVYYCTREFYGRQYYQAMDYWGQGTTLTVSS
VL: DIQMTQSPSTLSASVGDRVTITCKASQNVGTAVAWYQQKPGKAPKLLIYWASTRHTGVPDRFSGSGSGTDFTLTISSLQPDDFATYYCQQFGRYPYTFGSGTKVEVK
The molecule B1 yielded a Kd with IL-5Rα [1] of 22.9 nM.

B2: IL-5Rα×CD3ε scFv(L)/scFv-Fc (IL-5Rα arm) (antibody, V domains shown)
VH: QVQLVQSGAEVKKPGSSVKVSCKASGYTFTSYWINWVRQAPGQGLEWIGHIYPNKNENYYNHKFKDKATLTVDKSTNTAYMELSSLRSEDTAVYYCTREFYGRQYYQAMDYWGQGTTLTVSS
VL: DIQMTQSPSTLSASVGDRVTITCKASQNVGTAVAWYQQKPGKAPKLLIYWASTRHTGVPDRFSGSGSGTDFTLTISSLQPDDFATYYCQQFGRYPYTFGSGTKVEVK
Molecule B2 gave a Kd with IL-5Rα [1] of 59.8 nM.

B3: 5R65.7 (antibody, V domains shown)
VH: QVQLVQSGAEVKKPGSSVKVSCKASGYTFTSYWINWVRQAPGQGLEWIGHIYPNKNENYYNHKFKDKATLTVDKSTNTAYMELSSLRSEDTAVYYCTREFYGRQYYQAMDYWGQGTTLTVSS
VL: DIQMTQSPSTLSASVGDRVTITCKASQNVGTAVAWYQQKPGKAPKLLIYWASTRHTGVPDRFSGSGSGTDFTLTISSLQPDDFATYYCQQFGRYPYTFGSGTKVEVK
Turning to B3, binding in the assay with IL-5Rα [2] was characterised by a dissociation constant (Kd) of 4.64 nM.

B4: IL-5Rα×CD3ε IgG analog (IL-5Rα arm) (antibody, V domains shown)
VH: QVQLVQSGAEVKKPGSSVKVSCKASGYTFTSYWINWVRQAPGQGLEWIGHIYPNKNENYYNHKFKDKATLTVDKSTNTAYMELSSLRSEDTAVYYCTREFYGRQYYQAMDYWGQGTTLTVSS
VL: DIQMTQSPSTLSASVGDRVTITCKASQNVGTAVAWYQQKPGKAPKLLIYWASTRHTGVPDRFSGSGSGTDFTLTISSLQPDDFATYYCQQFGRYPYTFGSGTKVEVK
In the assay with IL-5Rα [1], B4 registered a Kd of 30.5 nM.

B5: 5R65 (antibody, V domains shown)
VH: QVQLVQSGAEVKKPGSSVKVSCKASGYTFTSYWINWVRQAPGQGLEWIGHIYPNKNENYYNHKFKDKATLTVDKSTNTAYMELSSLRSEDTAVYYCTRDYYGRSYYYAMDYWGQGTTLTVSS
VL: DIQMTQSPSTLSASVGDRVTITCKASQNVGTAVAWYQQKPGKAPKLLIYWASTRHTGVPDRFSGSGSGTDFTLTISSLQPDDFATYYCQQFGRYPYTFGSGTKVEVK
In the case of B5, the affinity in the assay with IL-5Rα [2], expressed as Kd, was 14.5 nM.

B6: IL-5Rα×CD3ε Diabody-Fc (IL-5Rα arm) (antibody, V domains shown)
VH: QVQLVQSGAEVKKPGSSVKVSCKASGYTFTSYWINWVRQAPGQGLEWIGHIYPNKNENYYNHKFKDKATLTVDKSTNTAYMELSSLRSEDTAVYYCTREFYGRQYYQAMDYWGQGTTLTVSS
VL: DIQMTQSPSTLSASVGDRVTITCKASQNVGTAVAWYQQKPGKAPKLLIYWASTRHTGVPDRFSGSGSGTDFTLTISSLQPDDFATYYCQQFGRYPYTFGSGTKVEVK
In the assay with IL-5Rα [1], B6 had a Kd of 123 nM.

B7: IL-5Rα×CD3ε scFv(L)/scFv-Fc (CD3ε arm) (antibody, V domains shown)
VH: EVQLVESGGGLVQPKGSLKLSCAASGFTFNTYAMNWVRQAPGKGLEWVARIRSKYNNYATYYADSVKDRFTISRDDSQSILYLQMNNLKTEDTAMYYCVRHGNFGNSYVSWFAYWGQGTLVTVSS
VL: QAVVTQESALTTSPGETVTLTCRSSTGAVTTSNYANWVQEKPDHLFTGLIGGTNKRAPGVPARFSGSLIGDKAALTITGAQTEDEAIYFCALWYSNLWVFGGGTKLTVL
With B7, the Kd with CD3ε stood at 3.61 nM.

B8: IL-5Rα×CD3ε BiTE(L)/scFv-Fc (CD3ε arm) (antibody, V domains shown)
VH: EVQLVESGGGLVQPKGSLKLSCAASGFTFNTYAMNWVRQAPGKGLEWVARIRSKYNNYATYYADSVKDRFTISRDDSQSILYLQMNNLKTEDTAMYYCVRHGNFGNSYVSWFAYWGQGTLVTVSS
VL: QAVVTQESALTTSPGETVTLTCRSSTGAVTTSNYANWVQEKPDHLFTGLIGGTNKRAPGVPARFSGSLIGDKAALTITGAQTEDEAIYFCALWYSNLWVFGGGTKLTVL
Take B8: in the assay with CD3ε, the Kd was 4.62 nM.

B9: IL-5Rα×CD3ε IgG analog (CD3ε arm) (antibody, V domains shown)
VH: EVQLVESGGGLVQPKGSLKLSCAASGFTFNTYAMNWVRQAPGKGLEWVARIRSKYNNYATYYADSVKDRFTISRDDSQSILYLQMNNLKTEDTAMYYCVRHGNFGNSYVSWFAYWGQGTLVTVSS
VL: QAVVTQESALTTSPGETVTLTCRSSTGAVTTSNYANWVQEKPDHLFTGLIGGTNKRAPGVPARFSGSLIGDKAALTITGAQTEDEAIYFCALWYSNLWVFGGGTKLTVL
In turn, B9 had a Kd with CD3ε of 1.71 nM.

B10: IL-5Rα×CD3ε Diabody-Fc (CD3ε arm) (antibody, V domains shown)
VH: EVQLVESGGGLVQPKGSLKLSCAASGFTFNTYAMNWVRQAPGKGLEWVARIRSKYNNYATYYADSVKDRFTISRDDSQSILYLQMNNLKTEDTAMYYCVRHGNFGNSYVSWFAYWGQGTLVTVSS
VL: QAVVTQESALTTSPGETVTLTCRSSTGAVTTSNYANWVQEKPDHLFTGLIGGTNKRAPGVPARFSGSLIGDKAALTITGAQTEDEAIYFCALWYSNLWVFGGGTKLTVL
Take B10: binding with CD3ε was characterised by a dissociation constant (Kd) of 8.41 nM.

B11: Benralizumab (antibody, V domains shown)
VH: EVQLVQSGAEVKKPGASVKVSCKASGYTFTSYVIHWVRQRPGQGLAWMGYINPYNDGTKYNERFKGKVTITSDRSTSTVYMELSSLRSEDTAVYLCGREGIRYYGLLGDYWGQGTLVTVSS
VL: DIQMTQSPSSLSASVGDRVTITCGTSEDIINYLNWYQQKPGKAPKLLIYHTSRLQSGVPSRFSGSGSGTDFTLTISSLQPEDFATYYCQQGYTLPYTFGQGTKVEIK
In the case of B11, binding with IL-5Rα [2] was characterised by a dissociation constant (Kd) of 26.8 nM.

What is called Kd is the constant that tells how readily two partners part at equilibrium.
